Measured values as given in article PMC7020397 (Toxins, 2020).
Ends that are not written are not given here.

Key:
[1] = biological target: muscle-type Torpedo nAChR (Torpedo); assay: competition with α-bungarotoxin
human neuronal α7 nAChR = human neuronal α7 nAChR (human, UniProt P36544 23-502); assay: competition with α-bungarotoxin
human neuronal α7 nAChR, sequence (P36544 23-502): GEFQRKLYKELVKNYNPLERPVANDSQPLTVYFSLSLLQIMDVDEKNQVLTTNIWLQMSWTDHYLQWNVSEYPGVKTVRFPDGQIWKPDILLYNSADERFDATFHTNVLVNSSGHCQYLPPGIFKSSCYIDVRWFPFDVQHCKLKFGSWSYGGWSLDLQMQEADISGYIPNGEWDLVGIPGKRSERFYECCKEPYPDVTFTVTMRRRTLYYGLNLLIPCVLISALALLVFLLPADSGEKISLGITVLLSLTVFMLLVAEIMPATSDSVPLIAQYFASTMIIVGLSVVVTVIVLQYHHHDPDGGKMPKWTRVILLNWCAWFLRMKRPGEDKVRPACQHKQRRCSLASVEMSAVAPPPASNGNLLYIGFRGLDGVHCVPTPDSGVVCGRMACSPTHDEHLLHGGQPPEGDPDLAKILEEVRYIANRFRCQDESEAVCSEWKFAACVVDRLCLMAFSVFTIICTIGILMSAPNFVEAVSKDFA

muscle-type Torpedo nAChR (Torpedo), sequence (P02710 25-461 limits assumed, chain 1 of 4): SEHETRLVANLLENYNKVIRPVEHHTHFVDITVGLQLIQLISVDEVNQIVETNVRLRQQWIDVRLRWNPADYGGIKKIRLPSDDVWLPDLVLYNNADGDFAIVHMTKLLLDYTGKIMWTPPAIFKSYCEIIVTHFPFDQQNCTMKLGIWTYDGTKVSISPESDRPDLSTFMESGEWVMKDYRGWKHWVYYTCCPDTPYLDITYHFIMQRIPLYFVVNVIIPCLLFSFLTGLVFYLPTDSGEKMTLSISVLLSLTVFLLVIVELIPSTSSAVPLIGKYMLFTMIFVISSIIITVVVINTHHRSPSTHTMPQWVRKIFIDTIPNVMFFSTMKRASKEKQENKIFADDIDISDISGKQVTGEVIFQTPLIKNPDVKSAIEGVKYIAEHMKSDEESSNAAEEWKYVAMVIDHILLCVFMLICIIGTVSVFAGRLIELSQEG
muscle-type Torpedo nAChR (Torpedo), sequence (P02712 25-493 limits assumed, chain 2 of 4, further chain): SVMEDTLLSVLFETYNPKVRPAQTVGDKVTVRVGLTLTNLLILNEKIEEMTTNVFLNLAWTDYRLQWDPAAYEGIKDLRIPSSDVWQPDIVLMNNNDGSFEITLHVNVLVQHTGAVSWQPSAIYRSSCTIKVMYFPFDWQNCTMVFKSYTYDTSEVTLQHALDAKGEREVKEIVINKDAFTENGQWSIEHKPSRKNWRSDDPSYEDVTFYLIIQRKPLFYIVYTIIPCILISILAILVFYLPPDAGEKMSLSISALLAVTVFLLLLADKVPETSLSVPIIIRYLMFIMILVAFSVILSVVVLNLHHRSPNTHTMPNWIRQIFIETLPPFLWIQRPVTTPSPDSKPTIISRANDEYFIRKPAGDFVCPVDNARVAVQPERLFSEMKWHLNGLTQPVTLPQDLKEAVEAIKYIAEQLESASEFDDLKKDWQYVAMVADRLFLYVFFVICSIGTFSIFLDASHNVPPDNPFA
muscle-type Torpedo nAChR (Torpedo), sequence (P02714 18-506 limits assumed, chain 3 of 4, further chain): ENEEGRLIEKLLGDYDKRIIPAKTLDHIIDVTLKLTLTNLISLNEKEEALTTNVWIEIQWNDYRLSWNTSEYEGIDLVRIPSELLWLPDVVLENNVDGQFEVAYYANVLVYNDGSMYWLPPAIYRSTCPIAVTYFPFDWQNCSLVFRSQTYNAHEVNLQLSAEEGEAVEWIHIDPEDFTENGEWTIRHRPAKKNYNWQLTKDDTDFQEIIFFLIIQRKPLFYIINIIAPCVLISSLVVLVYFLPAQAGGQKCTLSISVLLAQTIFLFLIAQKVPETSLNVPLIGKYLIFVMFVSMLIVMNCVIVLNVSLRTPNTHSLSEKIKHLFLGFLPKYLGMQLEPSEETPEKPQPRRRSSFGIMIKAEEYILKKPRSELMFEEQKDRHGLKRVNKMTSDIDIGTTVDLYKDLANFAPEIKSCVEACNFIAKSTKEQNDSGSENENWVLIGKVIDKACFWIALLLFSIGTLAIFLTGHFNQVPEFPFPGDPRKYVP
muscle-type Torpedo nAChR (Torpedo), sequence (P02718 22-522 limits assumed, chain 4 of 4, further chain): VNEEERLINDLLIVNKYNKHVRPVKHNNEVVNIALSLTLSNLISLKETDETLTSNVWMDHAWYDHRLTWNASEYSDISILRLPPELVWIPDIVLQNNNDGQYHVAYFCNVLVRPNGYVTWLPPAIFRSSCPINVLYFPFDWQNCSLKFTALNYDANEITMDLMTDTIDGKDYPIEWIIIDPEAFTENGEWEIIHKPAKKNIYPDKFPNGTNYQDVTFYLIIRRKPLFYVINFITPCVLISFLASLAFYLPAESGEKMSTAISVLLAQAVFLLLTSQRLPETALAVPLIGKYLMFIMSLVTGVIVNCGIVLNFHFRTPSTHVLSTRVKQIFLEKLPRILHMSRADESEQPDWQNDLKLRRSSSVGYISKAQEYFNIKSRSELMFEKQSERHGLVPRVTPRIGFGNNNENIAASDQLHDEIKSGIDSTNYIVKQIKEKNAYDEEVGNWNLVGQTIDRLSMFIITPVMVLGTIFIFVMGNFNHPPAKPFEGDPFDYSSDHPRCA
OSK-1, sequence (P55896 whole entry): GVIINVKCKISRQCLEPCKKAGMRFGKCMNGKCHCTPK

**Q.** Which IC50 [1] does the source give for “OSK-1 (from UniProt P55896 1-38) (peptide)” here?
**A.** Its IC50 is 500 nM.

**Q.** For “spinoxin (from UniProt P84094 1-34) (peptide)”, which IC50 [1] is on record?
**A.** Its IC50 is 500 nM.

**Q.** For DNWWPKPPHQGPRPPRPRPKP (not fully specified, source: synthetic peptide) [azemiopsin], which IC50 (human neuronal α7 nAChR) is on record?
**A.** Its IC50 is 22000 nM.

**Q.** What about the IC50 [1] of the same molecule?
**A.** The IC50 was 180 nM.
